Among the data in PMC11359615, “Evaluation of ABD-Linked RM26 Conjugates for GRPR-Targeted Drug Delivery” (ACS Omega, 2024) are Kd, koff and kon values, retold here.

The target of test [1] is T1, gastrin-releasing peptide receptor (human (endogenous in PC-3), UniProt P30550 1-384).
T1 construct: gastrin-releasing peptide receptor on GRPR-expressing PC-3 cells; also called GRPR; source: endogenous, on living PC-3 cells
Briefly: radioligand binding; real-time binding kinetics of 111In-labelled conjugates on living GRPR-expressing PC-3 cells; conditions in the Supporting Information. To be noted: one partner purified.

Test [2] deals with T2, human serum albumin (human, UniProt P02768 25-609).
T2 construct: human serum albumin; also called HSA
Briefly: SPR; Biacore 8K; HSA amine-coupled on CM5 chip (1250 RU); constructs at 50, 25, 12.5, 6.25 and 3.125 nM flowed over at 30 uL/min in PBS-T pH 7.4; 150 s association, 3000 s dissociation; 1:1 Langmuir fit. To be noted: both partners purified.

The target in test [3] is T3, human serum albumin (human, UniProt P02768 25-609).
T3 construct: human serum albumin (HSA), immobilised by amine coupling; also called HSA
Briefly: SPR; Biacore 8K; HSA immobilised on a CM5 chip by amine coupling (1250 RU); constructs at 50, 25, 12.5, 6.25 and 3.125 nM flowed at 30 uL/min in PBS-T (PBS + 0.05% Tween-20, pH 7.4); 150 s association, 3000 s dissociation; 1:1 Langmuir fit. To be noted: both partners purified. (In general: In SPR one partner is held on a chip, and binding of the other changes the refractive index at the surface.)

Non-standard residues stand in square brackets, D forms with d. maleimide‑DOTA = DOTA attached via maleimide to the Cys thiol; Sta = CC(C)C[C@H](N)[C@@H](O)CC(=O)O; PEG4 = NCCOCCOCCOCCOCCC(=O)O

T1 sequence (P30550 whole entry): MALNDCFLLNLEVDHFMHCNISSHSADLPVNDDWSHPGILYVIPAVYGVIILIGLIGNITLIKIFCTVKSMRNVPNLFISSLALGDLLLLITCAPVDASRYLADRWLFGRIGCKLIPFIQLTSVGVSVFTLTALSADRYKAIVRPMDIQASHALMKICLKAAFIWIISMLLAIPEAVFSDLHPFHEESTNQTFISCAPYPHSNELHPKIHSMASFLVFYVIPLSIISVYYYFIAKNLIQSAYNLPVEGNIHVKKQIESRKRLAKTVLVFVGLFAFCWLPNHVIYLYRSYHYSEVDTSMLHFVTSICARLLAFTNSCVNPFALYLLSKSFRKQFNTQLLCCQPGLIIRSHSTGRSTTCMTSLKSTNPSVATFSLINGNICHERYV

B1: ABD-RM26 Gen 2A conjugate (designed binder)
chain: MEDANSLAEAKVLANRELDKYGVSDFYC(maleimide‑DOTA)RLINKAKTVEGVEALKLHILAALPVDGSGSGSLPETGGG[PEG4][dF]QWAVGH[Sta]L-NH2
modifications: numbers in words are those of the source; also: DOTA loaded with 111In in cell assays
As for B1, in test [1], the Kd worked out at 120 ± 140 nM, the koff was 0.013 s⁻¹ and the on-rate (kon) was 670000 M⁻¹ s⁻¹. The molecule also returned a Kd in test [2] of 0.048 nM.

B2: ABD-Cys14 control (recombinant ABD035 with N-terminal MEDANS, a Cys, a C-terminal Sortase A recognition sequence and a His-tag) (designed binder)
chain: MEDANSLAEAKVLANRELDKYGVSDFYCRLINKAKTVEGVEALKLHILAALPVDGSGSGSLPETGG
notes: also called ABD control; MEDANS-ABD; source: E. coli BL21 (DE3)*, purified (IMAC, HisPur Cobalt resin)
B2: in test [3], the off-rate (koff) was 0.00024 s⁻¹ and the kon was found to be 1.8e+07 M⁻¹ s⁻¹.

B3: ABD (albumin-binding domain; recombinant ABD035 with N-terminal MEDANS, a Cys and a C-terminal Sortase A recognition sequence and His-tag) (designed binder)
chain: MEDANSLAEAKVLANRELDKYGVSDFYCRLINKAKTVEGVEALKLHILAALPVDGSGSGSLPETGG
notes: also called ABD control; unconjugated ABD; source: E. coli BL21 (DE3)*, purified (IMAC, HisPur Cobalt resin); not shown: His6, C-terminal, kept
Turning to B3, in test [2], the Kd stood at 0.013 nM.

By Kd is commonly meant the constant that tells how readily two partners part at equilibrium. In general, koff refers to the first-order rate constant of dissociation. What is called kon is a measure of how fast the partners come together.
